Test results reported in article PMC10397247.

Assays:
4H2187-AA = target: T1, 4H2187-AA; assay: two-hybrid library CCmax; details: mean of both orientations;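 note: natural log of median RNA to DNA barcode read ratio; higher means stronger binding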
T1 chain: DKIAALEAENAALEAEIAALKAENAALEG

4H2873-AA = target: T2, 4H2873-AA; assay: two-hybrid library CCmax; details: mean of both orientations;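 note: natural log of median RNA to DNA barcode read ratio; higher means stronger binding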
T2 chain: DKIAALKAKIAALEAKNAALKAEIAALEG

4H2646-AA = target: T3, 4H2646-AA; assay: two-hybrid library CCmax; details: mean of both orientations;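 note: natural log of median RNA to DNA barcode read ratio; higher means stronger binding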
T3 chain: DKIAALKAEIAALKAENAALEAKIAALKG

4H1985-AA = target: T4, 4H1985-AA; assay: two-hybrid library CCmax; details: mean of both orientations;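 note: natural log of median RNA to DNA barcode read ratio; higher means stronger binding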
T4 chain: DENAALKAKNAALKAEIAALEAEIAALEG

4H1710-AA = target: T5, 4H1710-AA; assay: two-hybrid library CCmax; details: mean of both orientations;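 note: natural log of median RNA to DNA barcode read ratio; higher means stronger binding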
T5 chain: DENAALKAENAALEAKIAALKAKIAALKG

4H87-AA = target: T6, 4H87-AA; assay: two-hybrid library CCmax; details: mean of both orientations;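 note: natural log of median RNA to DNA barcode read ratio; higher means stronger binding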
T6 chain: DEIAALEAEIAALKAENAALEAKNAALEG

4H1350-AA = target: T7, 4H1350-AA; assay: two-hybrid library CCmax; details: mean of both orientations
T7 chain: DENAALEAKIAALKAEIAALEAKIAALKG

4H233-AA = target: T8, 4H233-AA; assay: two-hybrid library CCmax; details: mean of both orientations
T8 chain: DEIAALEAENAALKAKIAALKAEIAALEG

4H775-AA = target: T9, 4H775-AA; assay: two-hybrid library CCmax; details: mean of both orientations
T9 chain: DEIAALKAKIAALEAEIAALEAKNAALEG

4H3134-AA = target: T10, 4H3134-AA; assay: two-hybrid library CCmax; details: mean of both orientations
T10 chain: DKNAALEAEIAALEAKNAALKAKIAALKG

4H2687-AA = target: T11, 4H2687-AA; assay: two-hybrid library CCmax; details: mean of both orientations
T11 chain: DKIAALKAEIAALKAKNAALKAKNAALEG

4H2758-AA = target: T12, 4H2758-AA; assay: two-hybrid library CCmax; details: mean of both orientations
T12 chain: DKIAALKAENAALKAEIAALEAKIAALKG

4H816-AA = target: T13, 4H816-AA; assay: two-hybrid library CCmax; details: mean of both orientations
T13 chain: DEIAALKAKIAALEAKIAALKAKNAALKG

4H390-AA = target: T14, 4H390-AA; assay: two-hybrid library CCmax; details: mean of both orientations
T14 chain: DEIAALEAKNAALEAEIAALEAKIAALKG

4H278-AA = target: T15, 4H278-AA; assay: two-hybrid library CCmax; details: mean of both orientations
T15 chain: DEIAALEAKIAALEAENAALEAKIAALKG

4H121-AA = target: T16, 4H121-AA; assay: two-hybrid library CCmax
T16 chain: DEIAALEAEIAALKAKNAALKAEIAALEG

4H2512-AA = target: T17, 4H2512-AA; assay: two-hybrid library CCmax; details: mean of both orientations
T17 chain: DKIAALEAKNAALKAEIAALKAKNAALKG

4H510-AA = target: T18, 4H510-AA; assay: two-hybrid library CCmax; details: mean of both orientations
T18 chain: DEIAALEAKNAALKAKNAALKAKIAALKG

4H2705-AA = target: T19, 4H2705-AA; assay: two-hybrid library CCmax; details: mean of both orientations
T19 chain: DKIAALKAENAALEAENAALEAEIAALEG

4H3625-AA = target: T20, 4H3625-AA; assay: two-hybrid library CCmax; details: mean of both orientations
T20 chain: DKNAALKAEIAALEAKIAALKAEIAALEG

4H3940-AA = target: T21, 4H3940-AA; assay: two-hybrid library CCmax; details: mean of both orientations
T21 chain: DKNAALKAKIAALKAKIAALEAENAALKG

4H3409-AA = target: T22, 4H3409-AA; assay: two-hybrid library CCmax; details: mean of both orientations
T22 chain: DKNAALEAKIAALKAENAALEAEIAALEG

4H2985-AA = target: T23, 4H2985-AA; assay: two-hybrid library CCmax; details: mean of both orientations
T23 chain: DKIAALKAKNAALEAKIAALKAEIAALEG

4H2667-bA = target: T24, 4H2667-bA; assay: two-hybrid library CCNG1
T24 chain: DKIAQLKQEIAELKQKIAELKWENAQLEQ

4H2576-bA = target: T25, 4H2576-bA; assay: two-hybrid library CCNG1
T25 chain: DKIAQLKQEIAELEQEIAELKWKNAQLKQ

4H967-bA = target: T26, 4H967-bA; assay: two-hybrid library CCNG1
T26 chain: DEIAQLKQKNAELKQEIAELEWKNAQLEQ

4H1845-bA = target: T27, 4H1845-bA; assay: two-hybrid library CCNG1
T27 chain: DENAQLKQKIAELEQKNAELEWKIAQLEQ

4H568-bA = target: T28, 4H568-bA; assay: two-hybrid library CCNG1
T28 chain: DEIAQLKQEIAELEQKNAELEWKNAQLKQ

4H331-bA = target: T29, 4H331-bA; assay: two-hybrid library CCNG1
T29 chain: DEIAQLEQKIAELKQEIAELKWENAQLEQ

4H2697-bA = target: T30, 4H2697-bA; assay: two-hybrid library CCNG1
T30 chain: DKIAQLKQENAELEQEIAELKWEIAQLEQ

4H953-bA = target: T31, 4H953-bA; assay: two-hybrid library CCNG1
T31 chain: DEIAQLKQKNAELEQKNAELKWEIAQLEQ

4H4001-bA = target: T32, 4H4001-bA; assay: two-hybrid library CCNG1
T32 chain: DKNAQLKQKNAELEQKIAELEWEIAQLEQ

4H918-bA = target: T33, 4H918-bA; assay: two-hybrid library CCNG1
T33 chain: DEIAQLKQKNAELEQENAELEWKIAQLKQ

4H72-bA = target: T34, 4H72-bA; assay: two-hybrid library CCNG1
T34 chain: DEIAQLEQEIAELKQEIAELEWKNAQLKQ

4H3606-bA = target: T35, 4H3606-bA; assay: two-hybrid library CCNG1
T35 chain: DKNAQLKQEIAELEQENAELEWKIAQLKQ

4H883-bA = target: T36, 4H883-bA; assay: two-hybrid library CCNG1
T36 chain: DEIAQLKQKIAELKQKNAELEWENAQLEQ

4H3843-bA = target: T37, 4H3843-bA; assay: two-hybrid library CCNG1
T37 chain: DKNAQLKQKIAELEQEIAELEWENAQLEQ

4H462-bA = target: T38, 4H462-bA; assay: two-hybrid library CCNG1
T38 chain: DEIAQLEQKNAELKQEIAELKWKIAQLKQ

4H797-bA = target: T39, 4H797-bA; assay: two-hybrid library CCNG1
T39 chain: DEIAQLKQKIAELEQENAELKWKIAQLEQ

4H3189-bA = target: T40, 4H3189-bA; assay: two-hybrid library CCNG1
T40 chain: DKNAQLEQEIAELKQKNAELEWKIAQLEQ

4H1446-bA = target: T41, 4H1446-bA; assay: two-hybrid library CCNG1
T41 chain: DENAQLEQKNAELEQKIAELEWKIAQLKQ

4H346-bH = target: T42, 4H346-bH; assay: two-hybrid library CCNG1
T42 chain: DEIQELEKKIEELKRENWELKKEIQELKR

4H687-bA = target: T43, 4H687-bA; assay: two-hybrid library CCNG1
T43 chain: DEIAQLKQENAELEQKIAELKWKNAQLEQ

4H2610-bA = target: T44, 4H2610-bA; assay: two-hybrid library CCNG1
T44 chain: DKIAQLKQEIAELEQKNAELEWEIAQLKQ

4H3782-bA = target: T45, 4H3782-bA; assay: two-hybrid library CCNG1
T45 chain: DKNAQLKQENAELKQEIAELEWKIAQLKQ

4H607-bA = target: T46, 4H607-bA; assay: two-hybrid library CCNG1
T46 chain: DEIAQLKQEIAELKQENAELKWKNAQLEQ

4H370-bA = target: T47, 4H370-bA; assay: two-hybrid library CCNG1
T47 chain: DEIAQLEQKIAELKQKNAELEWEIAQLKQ

4H1328-bA = target: T48, 4H1328-bA; assay: two-hybrid library CCNG1
T48 chain: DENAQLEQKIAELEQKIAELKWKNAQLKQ

4H1369-bA = target: T49, 4H1369-bA; assay: two-hybrid library CCNG1
T49 chain: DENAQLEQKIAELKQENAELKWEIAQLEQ

4H342-bH = target: T50, 4H342-bH; assay: two-hybrid library CCNG1
T50 chain: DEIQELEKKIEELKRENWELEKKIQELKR

4H2944-bH = target: T51, 4H2944-bH; assay: two-hybrid library CCNG1
T51 chain: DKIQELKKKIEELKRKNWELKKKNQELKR

4H491-bH = target: T52, 4H491-bH; assay: two-hybrid library CCNG1
T52 chain: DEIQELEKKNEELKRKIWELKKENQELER

4H48-bH = target: T53, 4H48-bH; assay: two-hybrid library CCNG1
T53 chain: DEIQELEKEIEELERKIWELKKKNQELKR

4H2883-bH = target: T54, 4H2883-bH; assay: two-hybrid library CCNG1
T54 chain: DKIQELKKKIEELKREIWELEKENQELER

4H2937-bH = target: T55, 4H2937-bH; assay: two-hybrid library CCNG1
T55 chain: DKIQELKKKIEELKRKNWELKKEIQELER

4H2696-bH = target: T56, 4H2696-bH; assay: two-hybrid library CCNG1
T56 chain: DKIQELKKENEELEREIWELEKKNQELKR

DEIAALEAEIAALKAKNAALKAEIAALEG [4H121-AA] was tested, and the interaction score (4H2187-AA) was -0.0331, the interaction score (4H2873-AA) was 0.239 and the interaction score (4H2646-AA) was 2.21. It also gave an interaction score (4H1985-AA) of -1.39, an interaction score (4H1710-AA) of 0.228 and an interaction score (4H87-AA) of 0.81. The interaction score (4H1350-AA) was 0.484, the interaction score (4H233-AA) was -0.289 and the interaction score (4H775-AA) was -0.904. The interaction score (4H3134-AA) was 0.777, the interaction score (4H2687-AA) was -0.303 and the interaction score (4H2758-AA) was 0.775. For the same binder, the interaction score (4H816-AA) was -0.458, the interaction score (4H390-AA) was 1.2 and the interaction score (4H278-AA) was 2.13. The interaction score (4H121-AA) was 0.829, the interaction score (4H2512-AA) was -1.66 and the interaction score (4H510-AA) was -1.47. For the same binder, the interaction score (4H2705-AA) was 0.603, the interaction score (4H3625-AA) was -0.876 and the interaction score (4H3940-AA) was -0.784. It also gave an interaction score (4H3409-AA) of 0.672 and an interaction score (4H2985-AA) of 0.209.

DENAQLEQKIAELEQKIAELKWKNAQLKQ [4H1328-bA] showed an interaction score (4H2667-bA) of 0.432, an interaction score (4H2576-bA) of 1.95 and an interaction score (4H967-bA) of -0.292. The interaction score (4H1845-bA) was -0.257, the interaction score (4H568-bA) was -0.0125 and the interaction score (4H331-bA) was 1.02. The interaction score (4H2697-bA) was 0.429, the interaction score (4H953-bA) was -0.977 and the interaction score (4H4001-bA) was 1.48. For the same binder, the interaction score (4H918-bA) was -0.412, the interaction score (4H72-bA) was 1.25 and the interaction score (4H3606-bA) was 0.221. The interaction score (4H883-bA) was -0.916, the interaction score (4H3843-bA) was 1.8 and the interaction score (4H462-bA) was -0.405. It also gave an interaction score (4H797-bA) of -1.68, an interaction score (4H3189-bA) of -0.907 and an interaction score (4H1446-bA) of 0.372. It also gave an interaction score (4H346-bH) of 0.114, an interaction score (4H687-bA) of -0.983 and an interaction score (4H2610-bA) of -0.633. The interaction score (4H3782-bA) was 0.142, the interaction score (4H607-bA) was -0.918 and the interaction score (4H370-bA) was -0.958. It also gave an interaction score (4H1328-bA) of 1.62 and an interaction score (4H1369-bA) of -0.903.

Work on DKIQELKKENEELEREIWELEKKNQELKR [4H2696-bH] yielded an interaction score (4H342-bH) of 0.972, an interaction score (4H2944-bH) of -0.0809 and an interaction score (4H491-bH) of 1.73. For the same binder, the interaction score (4H48-bH) was 1.04, the interaction score (4H2883-bH) was 1.5 and the interaction score (4H2937-bH) was 1.47. It also gave an interaction score (4H2696-bH) of 0.576.
